T1: human EphB2 (Homo sapiens, UniProt P29323)
T1 construct: a protein of the extracellular region of each human Eph receptor fused with the SEAP protein and the His tag; made in house; host or cells: Expi293F cells
T1 sequence (P29323 19-543 limits assumed): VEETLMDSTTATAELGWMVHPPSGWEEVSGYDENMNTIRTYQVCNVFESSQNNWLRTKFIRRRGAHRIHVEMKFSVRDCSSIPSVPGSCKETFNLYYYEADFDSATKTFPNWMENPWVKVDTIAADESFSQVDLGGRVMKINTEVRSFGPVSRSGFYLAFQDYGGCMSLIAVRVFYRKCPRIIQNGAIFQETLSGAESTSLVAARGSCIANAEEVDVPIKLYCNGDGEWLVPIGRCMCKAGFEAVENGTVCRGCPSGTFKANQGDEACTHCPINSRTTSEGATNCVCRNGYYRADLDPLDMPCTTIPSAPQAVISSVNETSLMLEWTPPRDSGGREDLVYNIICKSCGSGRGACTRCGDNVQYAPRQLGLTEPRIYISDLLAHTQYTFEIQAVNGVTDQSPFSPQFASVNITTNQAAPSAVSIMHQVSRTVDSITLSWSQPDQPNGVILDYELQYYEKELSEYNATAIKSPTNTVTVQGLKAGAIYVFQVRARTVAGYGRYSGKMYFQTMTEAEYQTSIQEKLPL

T2: human EphB3 (Homo sapiens, UniProt P54753)
T2 construct: a protein of the extracellular region of each human Eph receptor fused with the SEAP protein and the His tag; made in house; host or cells: Expi293F cells
T2 sequence (P54753 34-559 limits assumed): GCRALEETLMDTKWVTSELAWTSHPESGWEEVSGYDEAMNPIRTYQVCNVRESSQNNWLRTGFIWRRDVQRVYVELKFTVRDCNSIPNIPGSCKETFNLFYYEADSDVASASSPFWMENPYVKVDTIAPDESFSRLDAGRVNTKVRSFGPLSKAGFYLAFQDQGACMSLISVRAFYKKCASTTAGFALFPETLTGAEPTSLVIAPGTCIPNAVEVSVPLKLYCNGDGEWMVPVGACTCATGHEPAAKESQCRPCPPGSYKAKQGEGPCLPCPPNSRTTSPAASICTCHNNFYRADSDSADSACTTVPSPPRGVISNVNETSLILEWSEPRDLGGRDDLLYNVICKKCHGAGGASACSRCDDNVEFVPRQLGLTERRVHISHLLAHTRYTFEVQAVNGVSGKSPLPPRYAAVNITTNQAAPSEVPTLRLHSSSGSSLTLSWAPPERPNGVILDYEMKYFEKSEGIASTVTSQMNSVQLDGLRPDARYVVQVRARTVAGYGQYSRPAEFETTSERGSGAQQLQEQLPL


Tests used:
Assay in all cases: Selectivity ELISA of humanized antibodies for human Eph receptor
Assay type in all cases: binding
Details in all cases: coated protein 1 nM
human EphB2 = target: T1, human EphB2
How it was run: (§1)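 Human Eph ECD-SEAP-His fusions, harvested after 5 days of Expi293F expression, are captured on anti-His-coated wells (1 nM final). Bound humanized antibody is detected with HRP anti-IgG and TMB at 450 nm.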

human EphB3 = target: T2, human EphB3
How it was run: as §1

human EphA2 = target: T3, human EphA2 (Homo sapiens, UniProt P29317)
T3 construct: a protein of the extracellular region of each human Eph receptor fused with the SEAP protein and the His tag; made in house; host or cells: Expi293F cells (culture supernatant)
How it was run: as §1

SEAP-His = SEAP-His (Homo sapiens, UniProt P05187)
How it was run: as §1

human EphA5 = target: T4, human EphA5 (Homo sapiens, UniProt P54756)
T4 construct: a protein of the extracellular region of each human Eph receptor fused with the SEAP protein and the His tag; made in house; host or cells: Expi293F cells (culture supernatant)
How it was run: as §1

T3 sequence (P29317 24-537 limits assumed): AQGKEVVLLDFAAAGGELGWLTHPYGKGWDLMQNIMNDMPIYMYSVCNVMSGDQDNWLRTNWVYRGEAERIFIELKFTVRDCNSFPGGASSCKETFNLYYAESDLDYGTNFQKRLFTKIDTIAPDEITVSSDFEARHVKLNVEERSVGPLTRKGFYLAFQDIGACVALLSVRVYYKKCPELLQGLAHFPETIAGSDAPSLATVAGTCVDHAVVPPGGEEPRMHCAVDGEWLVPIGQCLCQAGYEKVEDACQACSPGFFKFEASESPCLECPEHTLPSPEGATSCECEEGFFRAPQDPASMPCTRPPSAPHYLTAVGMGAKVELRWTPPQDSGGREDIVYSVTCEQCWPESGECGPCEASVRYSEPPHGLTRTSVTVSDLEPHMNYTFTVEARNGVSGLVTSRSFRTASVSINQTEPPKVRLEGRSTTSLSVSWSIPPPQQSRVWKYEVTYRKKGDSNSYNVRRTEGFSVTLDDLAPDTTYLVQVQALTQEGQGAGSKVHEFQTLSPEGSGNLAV
SEAP-His, sequence (P05187 23-511 limits assumed): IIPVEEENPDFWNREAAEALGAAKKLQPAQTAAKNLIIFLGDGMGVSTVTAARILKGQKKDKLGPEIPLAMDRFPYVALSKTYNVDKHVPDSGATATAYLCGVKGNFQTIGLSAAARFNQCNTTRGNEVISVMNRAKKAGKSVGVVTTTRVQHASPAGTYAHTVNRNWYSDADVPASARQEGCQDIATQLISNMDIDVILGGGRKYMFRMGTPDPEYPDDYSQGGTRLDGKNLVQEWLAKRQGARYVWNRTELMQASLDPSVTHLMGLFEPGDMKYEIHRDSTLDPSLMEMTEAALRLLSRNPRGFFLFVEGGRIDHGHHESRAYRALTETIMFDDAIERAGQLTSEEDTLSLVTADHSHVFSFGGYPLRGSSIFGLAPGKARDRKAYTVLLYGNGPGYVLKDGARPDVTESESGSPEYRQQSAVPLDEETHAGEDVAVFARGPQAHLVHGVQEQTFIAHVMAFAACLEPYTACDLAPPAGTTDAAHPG
T4 sequence (P54756 25-573 limits assumed): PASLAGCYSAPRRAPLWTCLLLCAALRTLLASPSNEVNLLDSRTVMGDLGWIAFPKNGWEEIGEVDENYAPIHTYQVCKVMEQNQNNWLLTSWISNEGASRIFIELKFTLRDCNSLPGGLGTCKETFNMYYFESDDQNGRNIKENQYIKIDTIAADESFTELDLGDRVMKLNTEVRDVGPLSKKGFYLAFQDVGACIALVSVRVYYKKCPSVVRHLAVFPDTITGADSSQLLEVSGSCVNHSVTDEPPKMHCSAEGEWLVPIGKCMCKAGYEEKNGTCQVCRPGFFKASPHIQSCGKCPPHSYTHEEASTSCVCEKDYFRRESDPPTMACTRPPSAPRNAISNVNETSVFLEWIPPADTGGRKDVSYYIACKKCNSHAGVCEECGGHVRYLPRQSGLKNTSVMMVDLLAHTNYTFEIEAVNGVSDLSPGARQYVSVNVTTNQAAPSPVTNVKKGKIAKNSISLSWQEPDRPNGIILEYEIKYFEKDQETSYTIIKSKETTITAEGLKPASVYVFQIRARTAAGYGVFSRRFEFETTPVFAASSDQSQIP

Row | Molecule | hEphB2-SEAP-: absorbance at 450 nm, percentage with respect to hEphA4-SEAP-His as 100% (human EphB2) | hEphB3-SEAP-: absorbance at 450 nm, percentage with respect to hEphA4-SEAP-His as 100% (human EphB3) | hEphA2-SEAP-: absorbance at 450 nm, percentage with respect to hEphA4-SEAP-His as 100% (human EphA2) | SEAP-His: absorbance at 450 nm, percentage with respect to hEphA4-SEAP-His as 100% (SEAP-His) | hEphA5-SEAP-: absorbance at 450 nm, percentage with respect to hEphA4-SEAP-His as 100% (human EphA5)
1 | 95 (antibody, V domains shown, constant regions without entry; synthetic humanized antibody light chain variable region sequence; synthetic humanized antibody heavy chain variable region sequence) VL: EIVMTQSPATLSVSPGERATLSCRASENIYRNLAWYQQKPGQSPRLLIYAATNLADGIPARFSGSGSGTEYTLTISSLQSEDFAVYYCQHFWGTPWTFGQGTKVEIK VH: QVQLVQSGSELKKPGASVKVSCKASGYTFTDYSMHWVRQAPGQGLEWMGWINTETGEPTYADDFKGRFVFSLDTSVSTAYLQISSLKAEDTAVYYCARIPLYYYGSRYWYFDVWGQGTTVTVSS | 4.7% | 4.6% | 4.2% | 4.4% | 4.6%
2 | 141 (antibody, V domains shown, synthetic humanized antibody heavy chain variable region sequence; synthetic humanized antibody light chain variable region sequence) VH: QVQLVQSGSELKKPGASVKVSCKASGYTFTDYSMHWVRQAPGQGLEWMGWINTETGEPTYADDFKGRFVFSLDTSVSTAYLQISSLKAEDTAVYYCARIPLYYYGSRYWYFDVWGQGTTVTVSS VL: DIQMTQSPSSLSASVGDRVTITCRASENIYRNLAWYQQKPGKAPKLLVYAATNLADGVPSRFSGSGSGTDYTLTISSLQPEDFATYYCQHFWGTPWTFGQGTKVEIK | 5.2% | 5.2% | 5.2% | 5.0% | 5.3%
3 | 138 (antibody, V domains shown, synthetic humanized antibody heavy chain variable region sequence; synthetic humanized antibody light chain variable region sequence) VH: QIQLVQSGSELKKPGASVKVSCKASGYTFTDYSMHWVRQAPGQGLKWMGWINTETGEPTYAQGFTGRFVFSLDTSVSTAYLQISSLKAEDTAVYYCARIPLYYYGSRYWYFDVWGQGTTVTVSS VL: DIQMTQSPSSLSASVGDRVTITCRASENIYRNLAWYQQKPGKAPKLLVYAATNLADGVPSRFSGSGSGTDYTLTISSLQPEDFATYYCQHFWGTPWTFGQGTKVEIK | 5.2% | 5.1% | 5.0% | 5.1% | 5.1%
4 | 96 (antibody, V domains shown, constant regions without entry; synthetic humanized antibody light chain variable region sequence; synthetic humanized antibody heavy chain variable region sequence) VL: EIVMTQSPATLSVSPGERATLSCRASENIYRNLAWYQQKPGQSPRLLIYAATNLADGIPARFSGSGSGTEYTLTISSLQSEDFAVYYCQHFWGTPWTFGQGTKVEIK VH: QVQLVQSGSELKKPGASVKVSCKASGYTFTDYSMHWVRQAPGQGLKWMGWINTETGEPTYADDFKGRFVFSLDTSVSTAYLQISSLKAEDTAVYYCARIPLYYYGSRYWYFDVWGQGTTVTVSS | 5.5% | 5.6% | 5.3% | 5.5% | 6.0%
5 | 140 (antibody, V domains shown, synthetic humanized antibody heavy chain variable region sequence; synthetic humanized antibody light chain variable region sequence) VH: QVQLVQSGSELKKPGASVKVSCKASGYTFTDYSMHWVRQAPGQGLKWMGWINTETGEPTYAQGFTGRFVFSLDTSVSTAYLQISSLKAEDTAVYYCARIPLYYYGSRYWYFDVWGQGTTVTVSS VL: DIQMTQSPSSLSASVGDRVTITCRASENIYRNLAWYQQKPGKAPKLLVYAATNLADGVPSRFSGSGSGTDYTLTISSLQPEDFATYYCQHFWGTPWTFGQGTKVEIK | 5.3% | 5.4% | 5.3% | 5.4% | 5.4%
6 | 139 (antibody, synthetic humanized antibody heavy chain variable region sequence; synthetic humanized antibody light chain variable region sequence; synthetic antibody constant region sequence) VH: QVQLVQSGSELKKPGASVKVSCKASGYTFTDYSMHWVRQAPGQGLEWMGWINTETGEPTYAQGFTGRFVFSLDTSVSTAYLQISSLKAEDTAVYYCARIPLYYYGSRYWYFDVWGQGTTVTVSS VL: DIQMTQSPSSLSASVGDRVTITCRASENIYRNLAWYQQKPGKAPKLLVYAATNLADGVPSRFSGSGSGTDYTLTISSLQPEDFATYYCQHFWGTPWTFGQGTKVEIK ASTKGPSVFPLAPSSRSTSESTAALGCLVKDYFPEPVTVSWNSGALTSGVHTFPAVLQSSGLYSLSSVVTVPSSNFGTQTYTCNVDHKPSNTKVDKTVERKSCVECPPCPAPPAAAPSVFLFPPKPKDTLMISRTPEVTCVVVDVSHEDPEVQFNWYVDGVEVHNAKTKPREEQFNSTFRVVSVLTVVHQDWLNGKEYKCKVSNKGLPAPIEKTISKTKGQPREPQVYTLPPSREEMTKNQVSLTCLVKGFYPSDIAVEWESNGQPENNYKTTPPMLDSDGSFFLYSKLTVDKSRWQQGNVFSCSVMHEALHNHYTQKSLSLSPG | 5.7% | 5.6% | 5.9% | 5.7% | 5.7%
7 | 73 (antibody, V domains shown, synthetic humanized antibody heavy chain variable region sequence; synthetic humanized antibody light chain variable region sequence) VH: QIQLVQSGSELKKPGASVKVSCKASGYTFTDYSMHWVRQAPGQGLKWMGWINTETGEPTYADDFKGRFVFSLDTSVSTAYLQISSLKAEDTAVYYCARIPLYYYGSRYWYFDVWGQGTTVTVSS VL: EIVMTQSPATLSVSPGERATLSCRASENIYRNLAWYQQKPGQSPRLLIYAATNLADGIPARFSGSGSGTEYTLTISSLQSEDFAVYYCQHFWGTPWTFGQGTKVEIK | 5.6% | 5.8% | 5.7% | 5.8% | 6.0%
